From paper PMC5881488 (The Journal of Cell Biology, 2018) come the findings set out here.

To fix the notation:
B3: MBP-Ana2 NT-2PM (aa 1–317, T33E/S38D) (domain or fragment, Drosophila, UniProt Q9XZ31 1-317, looked up)
chain: MFVPETEDMLPRLAPRPSAAVPMGHTNEIIGPEVPEVDILFGQPPQDPQMQPQQPNHAHQESSPRAAPTFASWKKQMLPRVNFSPILATELGPRTAPSSNSPCSSKEYQVMPRDRNYASDAQQTTNHMNCNAGGYNAEPKQQAYQSRRLSSSSNADVLTICAGTQTDPFNPSPPRKSLPQVVYSDIDVSNLANKSDLAALVSLVESVRHEQQQLRNLCEMILEQQQRAKPEAISKASSTTGTQCDILTTNQAGRRLSPIMQDYIAEEEEPLPPPQARVIPQFPSPRPHPPIAQSTGYRANTPQAKRIPQLAKPNTEK

Data set [1] addresses MBP-Ana2 NT-2PM (aa 1–317, T33E/S38D) (Drosophila) (UniProt Q9XZ31). Briefly: pull-down.
The target in data set [2] is B3. Briefly: pull-down.
Data set [3] concerns the molecule itself. Briefly: pull-down.
In data set [4] the target is Plk4-GFP lacking the putative CC and PB3 (Drosophila). Briefly: co-IP.
Data set [5] has as its target Plk4-GFP lacking PB3 (Drosophila). Briefly: co-IP.
Data set [6] deals with T1, GST-Ana2, full length (Drosophila, UniProt Q9XZ31 1-420).
T1 sequence (looked up): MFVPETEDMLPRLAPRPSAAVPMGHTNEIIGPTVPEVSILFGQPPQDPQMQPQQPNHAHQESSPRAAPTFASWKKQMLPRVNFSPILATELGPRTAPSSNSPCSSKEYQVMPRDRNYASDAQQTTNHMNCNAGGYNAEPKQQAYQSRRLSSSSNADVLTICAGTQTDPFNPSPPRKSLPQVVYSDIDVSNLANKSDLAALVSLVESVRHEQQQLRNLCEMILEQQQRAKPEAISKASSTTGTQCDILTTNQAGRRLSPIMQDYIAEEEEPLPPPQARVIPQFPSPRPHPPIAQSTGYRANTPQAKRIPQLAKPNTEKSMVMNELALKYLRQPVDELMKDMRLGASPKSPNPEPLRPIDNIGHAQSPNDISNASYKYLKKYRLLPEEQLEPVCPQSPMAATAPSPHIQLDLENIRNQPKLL
Briefly: pull-down.

Regarding “His6-Ana2 CT-3PM (aa 318–420, S318/S370/S373 phosphomimetic) (from UniProt Q9XZ31 318-420) (domain or fragment)”, the fold of His6-Ana2 CT pulled down relative to WT NT with WT CT in data set [1] was 3.5 fold.

B1: His6-Ana2 CT (aa 318–420), wild type (domain or fragment, Drosophila, UniProt Q9XZ31 318-420, looked up)
chain: SMVMNELALKYLRQPVDELMKDMRLGASPKSPNPEPLRPIDNIGHAQSPNDISNASYKYLKKYRLLPEEQLEPVCPQSPMAATAPSPHIQLDLENIRNQPKLL
B1: the binding result in data set [2] is on record as “binds”.

B2: MBP-Ana2 NT (aa 1–317), wild type (domain or fragment, Drosophila, UniProt Q9XZ31 1-317, looked up)
chain: MFVPETEDMLPRLAPRPSAAVPMGHTNEIIGPTVPEVSILFGQPPQDPQMQPQQPNHAHQESSPRAAPTFASWKKQMLPRVNFSPILATELGPRTAPSSNSPCSSKEYQVMPRDRNYASDAQQTTNHMNCNAGGYNAEPKQQAYQSRRLSSSSNADVLTICAGTQTDPFNPSPPRKSLPQVVYSDIDVSNLANKSDLAALVSLVESVRHEQQQLRNLCEMILEQQQRAKPEAISKASSTTGTQCDILTTNQAGRRLSPIMQDYIAEEEEPLPPPQARVIPQFPSPRPHPPIAQSTGYRANTPQAKRIPQLAKPNTEK
Take B2: in data set [3], the binding result is “binds”.

Consider B3, for which the binding result in data set [3] is recorded as “binds”.

B4: V5-Ana2 (anastral spindle 2), full length, wild type (natural protein)
chain: MFVPETEDMLPRLAPRPSAAVPMGHTNEIIGPTVPEVSILFGQPPQDPQMQPQQPNHAHQESSPRAAPTFASWKKQMLPRVNFSPILATELGPRTAPSSNSPCSSKEYQVMPRDRNYASDAQQTTNHMNCNAGGYNAEPKQQAYQSRRLSSSSNADVLTICAGTQTDPFNPSPPRKSLPQVVYSDIDVSNLANKSDLAALVSLVESVRHEQQQLRNLCEMILEQQQRAKPEAISKASSTTGTQCDILTTNQAGRRLSPIMQDYIAEEEEPLPPPQARVIPQFPSPRPHPPIAQSTGYRANTPQAKRIPQLAKPNTEKSMVMNELALKYLRQPVDELMKDMRLGASPKSPNPEPLRPIDNIGHAQSPNDISNASYKYLKKYRLLPEEQLEPVCPQSPMAATAPSPHIQLDLENIRNQPKLL
As for B4, in data set [4], the further fold decrease of co-precipitated Ana2 relative to deletion of PB3 alone was 2 fold. Also, the fold decrease of co-precipitated Ana2 on deletion of PB3 in data set [5] came out at 2 fold.

B5: Plk4 1–317-FLAG-His6 (domain or fragment, Drosophila, UniProt O97143 1-317, looked up)
chain: MLSNRAFGETIEDYEVQHLLGKGGFATVYKARCLHTHQDVAIKMIDKKLIQGTGLTNRVRQEVEIHSRLKHPSVLQLYTFFQDANYVYLVLELAHNGELHRYMNHIARPFTETEAASILKQVVAGLLYLHSHNIMHRDISLSNLLLSREMHVKIADFGLATQLKRPDERHMTMCGTPNYISPEVVSRTSHGLPADVWSVGCMLYTLLVGRPPFETDAVQSTLNKVVMSEYIMPAHLSYEAQDLINKLLKKLPHERITLEAVLCHPFMLKCSNGGHSAPGALNVFSQSMESGDSGIITFASSDSRNSQQIRSVENSGP
For B5, in data set [6], the binding result was “binds”.
